In the test the target is T1, recombinant human MASP-2 (consisting of the two complement control regions and the serine protease domain) (human, UniProt O00187 298-686).
T1 construct: domain: the two complement control regions and the serine protease domains; also called rMASP-2; MBL associated serine protease-2
The experiment in a line: size-exclusion chromatography (Superose-6) of 125I-labelled rLPI incubated with rMASP-2. A general note: Size exclusion chromatography separates by hydrodynamic size, large species first.

T1 sequence (O00187 298-686 limits assumed): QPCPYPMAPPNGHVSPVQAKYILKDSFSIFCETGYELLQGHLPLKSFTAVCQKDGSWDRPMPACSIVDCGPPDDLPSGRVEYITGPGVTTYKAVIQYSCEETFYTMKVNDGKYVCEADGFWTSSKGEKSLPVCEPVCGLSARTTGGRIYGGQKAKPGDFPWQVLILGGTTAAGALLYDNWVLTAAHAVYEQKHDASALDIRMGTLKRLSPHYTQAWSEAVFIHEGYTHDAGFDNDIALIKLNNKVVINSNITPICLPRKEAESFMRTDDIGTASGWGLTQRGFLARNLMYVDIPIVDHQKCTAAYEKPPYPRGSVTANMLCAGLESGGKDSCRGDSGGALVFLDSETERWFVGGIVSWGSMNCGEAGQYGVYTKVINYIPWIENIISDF

B1: recombinant LPI (Lectin Pathway Inhibitor) of Staphylococcus aureus (other)
chain: STSLPTSNEYQNEKLANELKSLLDELNVNELATGSLNTYYKRTIKISGQKAMYALKSKDFKKMSEAKYQLQKIYNEIDEALKSKY
notes: also called rLPI; 125I-LPI
Turning to B1, the binding result is reported as “binds”.

Values taken from patent US20090202437A1 (UMC UTRECHT HOLDING B V, published 2009).
